Test results as given in US20260055205A1 (published 2026).
Values belong to the binder of their own block, whether it stands above or below them.

Experiments:
[1] = target: T1, cynomolgus monkey PSMA (cynomolgus monkey, UniProt A0A2K5VNZ0 44-750); test: Octet
T1 construct: also called cyPSMA; cyno PSMA

[2] = target: T2, human PSMA (human, UniProt Q04609 44-750, limits assumed); test: Octet
T2 construct: also called huPSMA; hPSMA

[3] = target: T3, human CD3 epsilon (human, UniProt P07766 23-126, limits assumed); test: Octet
T3 construct: also called huCD3e
T3 sequence (P07766 23-126 limits assumed): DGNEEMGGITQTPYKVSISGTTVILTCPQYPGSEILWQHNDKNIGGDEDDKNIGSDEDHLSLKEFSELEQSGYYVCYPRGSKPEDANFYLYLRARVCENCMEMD

[4] = target: T4, cynomolgus monkey CD3 epsilon (cynomolgus monkey, UniProt Q95LI5 22-117, limits assumed); test: Octet
T4 construct: also called cyCD3e; cyno CD3
T4 sequence (looked up): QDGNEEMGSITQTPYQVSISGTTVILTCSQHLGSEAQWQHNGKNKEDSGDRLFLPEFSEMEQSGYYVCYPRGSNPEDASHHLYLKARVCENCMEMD

[5] = target: T5, human PSMA on PSMA-transfected CHO cells (human, UniProt Q04609 1-750); test: cell binding, labeled secondary antibody
T5 construct: whole, on cells; also called Hu PSMA CHO
T5 sequence (Q04609 whole entry): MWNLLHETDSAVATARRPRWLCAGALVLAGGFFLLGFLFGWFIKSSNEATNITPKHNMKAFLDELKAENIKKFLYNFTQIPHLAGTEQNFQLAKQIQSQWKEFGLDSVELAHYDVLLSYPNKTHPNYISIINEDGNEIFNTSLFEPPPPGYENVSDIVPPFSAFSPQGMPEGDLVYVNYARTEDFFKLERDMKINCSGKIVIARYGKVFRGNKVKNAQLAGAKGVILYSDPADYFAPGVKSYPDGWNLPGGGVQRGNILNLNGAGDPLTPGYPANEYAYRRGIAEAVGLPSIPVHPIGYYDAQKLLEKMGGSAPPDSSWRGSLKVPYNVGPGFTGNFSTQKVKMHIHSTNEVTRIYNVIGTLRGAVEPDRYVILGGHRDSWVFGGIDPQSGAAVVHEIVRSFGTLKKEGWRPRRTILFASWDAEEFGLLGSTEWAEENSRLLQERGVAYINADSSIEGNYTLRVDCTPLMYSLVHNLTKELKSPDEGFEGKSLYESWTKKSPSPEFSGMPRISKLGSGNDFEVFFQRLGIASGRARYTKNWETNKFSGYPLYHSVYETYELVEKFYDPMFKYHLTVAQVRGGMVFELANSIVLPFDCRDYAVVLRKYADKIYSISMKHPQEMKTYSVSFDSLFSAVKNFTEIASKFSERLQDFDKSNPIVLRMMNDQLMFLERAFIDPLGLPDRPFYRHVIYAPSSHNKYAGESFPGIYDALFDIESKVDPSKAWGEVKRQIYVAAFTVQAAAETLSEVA
Protocol: (§1) Surface binding was detected with a labeled secondary antibody specific for the anti-CD3 scFv.
(§2) The binding affinities to both human and cyno PSMA and human and cyno CD3 epsilon were determined.

[6] = target: T6, cyno PSMA on PSMA-transfected CHO cells (cynomolgus monkey, UniProt A0A2K5VNZ0 1-750); test: cell binding, labeled secondary antibody
T6 construct: whole, on cells; also called Cyno PSMA CHO
Protocol: as §1, §2

[7] = target: T7, human PSMA-Fc (human, UniProt Q04609 44-750); test: Octet
T7 construct: also called Human PSMA-Fc fusion
T7 sequence (Q04609 44-750 limits assumed): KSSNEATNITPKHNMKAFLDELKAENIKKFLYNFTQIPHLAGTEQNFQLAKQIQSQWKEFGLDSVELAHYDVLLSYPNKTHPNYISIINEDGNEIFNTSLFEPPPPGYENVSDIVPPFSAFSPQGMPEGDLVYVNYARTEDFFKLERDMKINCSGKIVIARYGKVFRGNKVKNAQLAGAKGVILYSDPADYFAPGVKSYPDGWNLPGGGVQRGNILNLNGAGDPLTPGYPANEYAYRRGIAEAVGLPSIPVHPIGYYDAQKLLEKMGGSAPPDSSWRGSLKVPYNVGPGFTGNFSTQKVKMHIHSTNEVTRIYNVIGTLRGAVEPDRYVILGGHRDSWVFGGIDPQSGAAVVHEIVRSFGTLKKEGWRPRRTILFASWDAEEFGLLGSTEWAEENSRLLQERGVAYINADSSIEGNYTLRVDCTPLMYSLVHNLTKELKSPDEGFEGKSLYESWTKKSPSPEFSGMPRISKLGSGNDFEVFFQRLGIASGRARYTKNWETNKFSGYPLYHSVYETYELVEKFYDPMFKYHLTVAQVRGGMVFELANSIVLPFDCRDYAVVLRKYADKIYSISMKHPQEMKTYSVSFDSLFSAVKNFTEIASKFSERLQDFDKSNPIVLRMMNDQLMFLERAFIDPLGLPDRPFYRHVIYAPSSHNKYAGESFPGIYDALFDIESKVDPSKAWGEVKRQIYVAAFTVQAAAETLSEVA

[8] = target: T7, human PSMA-Fc; test: Octet, PSMA-Fc
Protocol: Binding affinity of select PSMA PTE variants was tested by Octet.

[9] = target: T7, human PSMA-Fc; test: Octet; remark: listed apart in the source
[10] = target: T2, human PSMA; test: relative binding to PSMA, uTCE
[11] = target: T2, human PSMA; test: binding kinetics, uTCE
[12] = target: PSMA on LNCaP cells (human, UniProt Q04609 1-750); test: cell-based or functional assay
Sequence of PSMA on LNCaP cells (Q04609 whole entry): as the sequence (Q04609 whole entry) above

[13] = target: T3, human CD3 epsilon; test: BLI or SPR
[14] = target: T4, cynomolgus monkey CD3 epsilon; test: BLI or SPR
[15] = target: PSMA on 22Rv1 cells (human, UniProt Q04609 1-750); test: cell-based or functional assay
Sequence of PSMA on 22Rv1 cells (Q04609 whole entry): as above

[16] = target: T1, cynomolgus monkey PSMA; test: BLI or SPR
[17] = target: T2, human PSMA; test: BLI or SPR
[18] = target: T3, human CD3 epsilon; test: Biacore
[19] = target: T4, cynomolgus monkey CD3 epsilon; test: Biacore
[20] = target: T1, cynomolgus monkey PSMA; test: Biacore
[21] = target: T2, human PSMA; test: Biacore

T2 sequence (Q04609 44-750 limits assumed): as the sequence (Q04609 44-750 limits assumed) above

EC50 [5]: 9.06 nM
EC50 [6]: 28.8 nM
Kd [7]: 3.9 nM
Kd [1]: 41.1 nM
Kd [2]: 4.5 nM
Kd [3]: 71.9 nM
Kd [4]: 64.6 nM
Kd [8]: 3.9 nM
koff [8]: 0.000273 s⁻¹
kon [8]: 72500 M⁻¹ s⁻¹
Kd [9]: 3.9 nM
koff [9]: 0.00027 s⁻¹
kon [9]: 72000 M⁻¹ s⁻¹
B2: uTCE of AC3092 (bispecific antibody)
chain: QVQLVESGGGVVQPGRSLRLSCAASGRTFGIYVMGWVRQAPGKEREFVAAISWSGSNRLVSDSVKGRFTISRDNSKNTLYLQMNSLRAEDTAVYYCAASNRLYGRTWYDFNESDYWGQGTQVTVSSGGGGSGGGSELVVTQEPSLTVSPGGTVTLTCRSSNGAVTSSNYANWVQQKPGQAPRGLIGGTNKRAPGTPARFSGSLLGGKAALTLSGVQPEDEAVYYCALWYPNLWVFGGGTKLTVLGATPPETGAETESPGETTGGSAESEPPGEGEVQLLESGGGIVQPGGSLKLSCAASGFTFNTYAMNWVRQAPGKGLEWVARIRSKYNNYATYYADSVKDRFTISRDDSKNTVYLQMNNLKTEDTAVYYCVRHENFGNSYVSWFAHWGQGTLVTVSS
notes: also called AMX-500-P1; PSMA.5-CD3.23

Kd [11]: 0.79 nM
koff [11]: 8.7e-05 s⁻¹
kon [11]: 110000 M⁻¹ s⁻¹
Kd [7]: 1 nM
Kd [8]: 1 nM
koff [8]: 0.000122 s⁻¹
kon [8]: 125000 M⁻¹ s⁻¹
Kd [9]: 1 nM
koff [9]: 0.00012 s⁻¹
kon [9]: 120000 M⁻¹ s⁻¹
B5: uTCE of AC2591 (PSMA-VHH; CB01H01R3, CD3.23) (bispecific antibody)
chain: LTGPATSGSETPGTEVQLVESGGGSVQAGGSLSLSCVASGRTFGIYVMGWFRQAPGKEREFVAAISWSGSNRLVSDSVKGRFTISRENAKNTIYLQMNGLKPEDTANYFCAASNRLYGRTWYDFNESDYWGQGTQVTVSSGGGGSGGGSELVVTQEPSLTVSPGGTVTLTCRSSNGAVTSSNYANWVQQKPGQAPRGLIGGTNKRAPGTPARFSGSLLGGKAALTLSGVQPEDEAVYYCALWYPNLWVFGGGTKLTVLGATPPETGAETESPGETTGGSAESEPPGEGEVQLLESGGGIVQPGGSLKLSCAASGFTFNTYAMNWVRQAPGKGLEWVARIRSKYNNYATYYADSVKDRFTISRDDSKNTVYLQMNNLKTEDTAVYYCVRHENFGNSYVSWFAHWGQGTLVTVSSGTAEAASASGEAGRSANHTPAG
notes: also called PSMA.2

Kd [18]: 27.3 nM
Kd [19]: 26.6 nM
Kd [1]: 198 nM
Kd [2]: 13.2 nM
Kd [3]: 43 nM
Kd [4]: 44.9 nM
Kd [20]: 354 nM
Kd [21]: 19 nM
B7: uTCE from AC3928 (bispecific antibody)
chain: QVQLVESGGGVVQPGRSLRLSCAASGRTFGIYVWGWFRQAPGKEREFVGAMSWSGSNRKVSDSVKGRFTISRDNSKNTLYLQMNSLRAEDTAVYYCAASNKEYGRTWYDFNESDYWGQGTQVTVSSGGGGSGGGSELVVTQEPSLTVSPGGTVTLTCRSSNGAVTSSNYANWVQQKPGQAPRGLIGGTNKRAPGTPARFSGSLLGGKAALTLSGVQPEDEAVYYCALWYPNLWVFGGGTKLTVLSESATPESGPGTSPGATPESGPGTSESATPEVQLLESGGGIVQPGGSLKLSCAASGFTFNTYAMNWVRQAPGKGLEWVARIRSKYNNYATYYADSVKDRFTISRDDSKNTVYLQMNNLKTEDTAVYYCVRHENFGNSYVSWFAHWGQGTLVTVSS
notes: also called AMX500-P6 uTCE; PSMA.350-CD3.23

Kd [18]: 9.83 nM
Kd [19]: 10.4 nM
Kd [1]: 13.1 nM
Kd [2]: 1.6 nM
Kd [3]: 26.6 nM
Kd [4]: 33.7 nM
Kd [20]: 13 nM
Kd [21]: 0.5 nM
B8: uTCE from AC3934 (bispecific antibody)
chain: QVQLVESGGGVVQPGRSLRLSCAASGRTFGIYVWGWVRQAPGKEREFVGAISWSGSNRKVSDSVKGRFTISRDNSKNTLYLQMNSLRAEDTAVYYCAASNKLYGRTWYDFNESDYWGQGTQVTVSSGGGGSGGGSELVVTQEPSLTVSPGGTVTLTCRSSNGAVTSSNYANWVQQKPGQAPRGLIGGTNKRAPGTPARFSGSLLGGKAALTLSGVQPEDEAVYYCALWYPNLWVFGGGTKLTVLSESATPESGPGTSPGATPESGPGTSESATPEVQLVESGGGIVQPGGSLRLSCAASGFTFSTYAMNWVRQAPGKGLEWVGRIRTKRNNYATYYADSVKGRFTISRDDSKNTVYLQMNSLKTEDTAVYYCVRHENFGNSYVSWFAHWGQGTLVTVSS
notes: also called AMX500-P7 uTCE; PSMA.262-CD3.228

Continued, binder first:

B1: uTCE from AC3445 (bispecific antibody)
chain: QVQLVESGGGVVQPGRSLRLSCAASGRTFGIYVMGWVRQAPGKEREFVAAISWSGSNRKVSDSVKGRFTISRDNSKNTLYLQMNSLRAEDTAVYYCAASNRLYGRTWYDFNESDYWGQGTQVTVSSGGGGSGGGSELVVTQEPSLTVSPGGTVTLTCRSSNGAVTSSNYANWVQQKPGQAPRGLIGGTNKRAPGTPARFSGSLLGGKAALTLSGVQPEDEAVYYCALWYPNLWVFGGGTKLTVLSESATPESGPGTSPGATPESGPGTSESATPEVQLLESGGGIVQPGGSLKLSCAASGFTFNTYAMNWVRQAPGKGLEWVARIRSKYNNYATYYADSVKDRFTISRDDSKNTVYLQMNNLKTEDTAVYYCVRHENFGNSYVSWFAHWGQGTLVTVSS
notes: also called PSMA.119-CD3.23
Kd [1]: 47.5 nM
Kd [2]: 6.2 nM
Kd [3]: 34.8 nM
Kd [4]: 40 nM

B3: uTCE of AC2755 (bispecific antibody, V domains shown)
VH: QVQLVESGGGVVQPGRSLRLSCAASGRTFDVYAMGWVRQAPGKERELVAAINWSGSNKFHADSVKGRFTISRDNSKNTLYLQMNSLKTEDTAMYFCAASTRLYGTTWYEFNDSDYWGQGTQVTVSS
notes: TCE with CD3.23; also called VHH41
binding result [10]: binds

B4: uTCE of AC2750 (bispecific antibody, V domains shown)
VH: QVQLVESGGGVVQPGRSLRLSCAASGRTFDVYAMGWFRQAPGKGRELVAAINWSGSNKFHADSVKGRFTISRDNSKNTLYLQMNSLRPEDTAVYFCAASTRLYGTTWYEFNDSDYWGQGTQVTVSS
notes: TCE with CD3.23; also called VHH36
binding result [10]: binds

B6: AMX-500(uTCE) (bispecific antibody)
chain: QVQLVESGGGVVQPGRSLRLSCAASGRTFGIYVWGWFRQAPGKEREFVGAMSWSGSNRKVSDSVKGRFTISRDNSKNTLYLQMNSLRAEDTAVYYCAASNKEYGRTWYDFNESDYWGQGTQVTVSSGGGGSGGGSELVVTQEPSLTVSPGGTVTLTCRSSNGAVTSSNYANWVQQKPGQAPRGLIGGTNKRAPGTPARFSGSLLGGKAALTLSGVQPEDEAVYYCALWYPNLWVFGGGTKLTVLSESATPESGPGTSPGATPESGPGTSESATPEVQLVESGGGIVQPGGSLRLSCAASGFTFSTYAMNWVRQAPGKGLEWVGRIRTKRNNYATYYADSVKGRFTISRDDSKNTVYLQMNSLKTEDTAVYYCVRHENFGNSYVSWFAHWGQGTLVTVSS
notes: also called uTCE from AC3896; AMX-500-P4 uTCE
in vitro cytotoxicity IC50, LNCaP cells, donor 1 [12]: 0.024 nM
in vitro cytotoxicity IC50, LNCaP cells, donor 2 [12]: 0.015 nM
in vitro cytotoxicity IC50, LNCaP cells, donor 3 [12]: 0.016 nM
in vitro cytotoxicity IC50, LNCaP cells, donor 5 [12]: 0.032 nM
Kd [13]: 28 nM
koff [13]: 0.1 s⁻¹
kon [13]: 4e+06 M⁻¹ s⁻¹
Kd [14]: 26 nM
koff [14]: 0.1 s⁻¹
kon [14]: 5e+06 M⁻¹ s⁻¹
in vitro cytotoxicity IC50, 22Rv1 cells, donor 1 [15]: 0.691 nM
in vitro cytotoxicity IC50, 22Rv1 cells, donor 2 [15]: 1.34 nM
in vitro cytotoxicity IC50, 22Rv1 cells, donor 3 [15]: 1.3 nM
Kd [16]: 410 nM
koff [16]: 0.043 s⁻¹
kon [16]: 100000 M⁻¹ s⁻¹
Kd [17]: 44 nM
koff [17]: 0.012 s⁻¹
kon [17]: 270000 M⁻¹ s⁻¹
EC50 [5]: 17.4 nM
Kd [18]: 12.8 nM
Kd [19]: 13.7 nM
Kd [1]: 201 nM
Kd [2]: 12.1 nM
Kd [3]: 33.2 nM
Kd [4]: 38.8 nM
Kd [20]: 230 nM
Kd [21]: 11.7 nM
